{"source": "the supplement of paper PMC12636428", "data": [{"tested_on": "Saccharomyces cerevisiae", "assay": "transcriptional activation domain activity (GFP:mCherry ratio, weighted mean of sorted bins, harmonized to initial dataset scale) (arbitrary fluorescence ratio units); higher = stronger transcriptional activation", "settings": "beta-estradiol 1 µM; induction time 4 h", "in_short": "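In diploid yeast carrying a GFP reporter, barcoded protein tiles fused to an estradiol-inducible synthetic transcription factor were integrated at the URA3 locus. Cultures diluted 1:5 into SC with 1 uM beta-estradiol were kept at 30 °C for 4 hours, then sorted by GFP:mCherry ratio into 8 bins before barcode sequencing. Tiles with under 50 reads were excluded. The activation activity reported here is the read-weighted mean of bin median fluorescence, averaged across barcodes and linearly rescaled to the initial dataset.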", "values": [{"sequence": "PSHRSVTPFLGQQQQLQSLVPLTPSALFGGANFNQSGNIADSSLSFTFTNSSN", "transcriptional activation domain activity": 49800}, {"sequence": "MPPLLQLRLVHFLQLCLLLLLLLLRLHLLELLHFLLVFLLHRSILLLCQICSL", "transcriptional activation domain activity": 54800}, {"sequence": "MFCWLCYFLPFISFGFPLIYPSSVGILLWIVISGLCVFIFTLKMFLVFLLLFF", "transcriptional activation domain activity": 46100}, {"sequence": "AAASAPAPQNDGFSEVQHSRGGRGRGGHPSGERGGYRGRGRGGPRGDFGGRGR", "transcriptional activation domain activity": 49600}, {"sequence": "SSGGDSGGDDTTTTTKKSRPRHHHLAHHHLHHLHHLHYLHHFHHHTHQHDDHL", "transcriptional activation domain activity": 22900}, {"sequence": "FHRGGSNGSNSNNNNNAGDLQHHQHAGINKTTANVSEKYHWNRIKGTVTDVIE", "transcriptional activation domain activity": 28300}, {"sequence": "LLSLPNYFGIVFQVLKPEITTMYIAALDLCNLHTLYKAILFTLLALTWLILVF", "transcriptional activation domain activity": 50500}, {"sequence": "FFFFPFLSLLFFFFPFLLSLLSSSLLLAAFSCFCFLPSLTPLPLSSSSSSPLF", "transcriptional activation domain activity": 34900}, {"sequence": "ETYLFLQDQDESADSHHHDELGSEITLADNKFSYLPPTLEELMEEQDCNNGRS", "transcriptional activation domain activity": 84700}, {"sequence": "WWGDTYFLFFPCLMYKFHVGFCLYMKWEMLYLLLFGRACDVFIMIGVVAVHVL", "transcriptional activation domain activity": 62400}, {"sequence": "TVWLILNDQTLGYALGSFLCENSLLLSQRINEFFDTVLVAWMQWVLRWLDSWP", "transcriptional activation domain activity": 40400}, {"sequence": "MITVLSVIPLLLLLLLLLLLLLLLLLLLLISPLFRLGSLFVFCPYILFRLWWV", "transcriptional activation domain activity": 42000}, {"sequence": "YRLLLSLVVRLYFFLRFSLSHTLRTVVIVLAPLTYFLSGITYIFFTAPYRVLF", "transcriptional activation domain activity": 61800}, {"sequence": "LLRALSDLRRWRRKYTMLLELPDPFKSQRQHAHEYQLAIPLVEEAVLSFFLFL", "transcriptional activation domain activity": 57600}, {"sequence": "MFMSTLLLVFIHYGWAFFLGCCLWCFVISLCFWYVKLWLLVGCYILVLCDVAR", "transcriptional activation domain activity": 37400}, {"sequence": "IVSPFSTSVRSVSSCVELIRQGRGALATSITGYKYLILYGQVMMMLKIFTFYF", "transcriptional activation domain activity": 55600}, {"sequence": "TVGPVDNNYRDLEAYLETRYLRYCDPSKSLHLMATLMVRCAINILRFMARHPR", "transcriptional activation domain activity": 54100}, {"sequence": "MLFFHQDTVVGQLFTRYTALIVLIFKSSSVLVFVLFLFFFFFFWPIRILVSFI", "transcriptional activation domain activity": 37100}, {"sequence": "GYDDTVVLDGCYAAAIRWKSFAYVSTAVRISWKRYLMRFLLRISPWLTIIFSV", "transcriptional activation domain activity": 57600}, {"sequence": "SSSSSRVACGQVVKCGSEVVATSNGAYPVQEGDSCSRARRQSTGSVVNRTTRP", "transcriptional activation domain activity": 26400}, {"sequence": "MVAVVEVWVGEGVGEFWHLVKVWEGFLKLEYPVFFFDVWFFYDPFFCALGFFI", "transcriptional activation domain activity": 79300}, {"sequence": "MSIVPVNSTYTLCILLMFVMLETTLYDPPLCGCMARLVTMFYGFFYGFFIYLI", "transcriptional activation domain activity": 61000}, {"sequence": "MLQHSWCFIFRLFDPLFFFFFFFFSTWNAIVGRWVFSLSFEPFFVRLLHLILY", "transcriptional activation domain activity": 37700}, {"sequence": "LSSSPSSQSASSTSTVLVVGTDDKKVKEAGDELKSKLGVKGGGKGPRWSGKFT", "transcriptional activation domain activity": 23800}, {"sequence": "ELPKKCDDKYWEHGDNYQEAIRQLPTKPSLVEFFNCLITLNRILALTLRMLYS", "transcriptional activation domain activity": 55200}, {"sequence": "PGEVSEAEANGDAPKADDAAAPESGEAAKPKKKKKKAAKKPKKEGEEGAAAAP", "transcriptional activation domain activity": 37700}, {"sequence": "NTTTPDAAEGDAEGEDSASASGSGSEGKGGEGEEKTGKKGKKGRKGKLLQRLK", "transcriptional activation domain activity": 29500}, {"sequence": "MQLDGVQLGFVGLTPFFRERHTECPVFILVVGHSCKLLLIMHIILVIHLLDCR", "transcriptional activation domain activity": 52900}, {"sequence": "EVEAAIAAAAAEVEKVEVKAKAKAEAAAAAAAAAEAAAAAEARAAAAAAAQAA", "transcriptional activation domain activity": 30700}, {"sequence": "ENEQDSLALDDLDRAFELVEGMDMDWMMPSHAHHSPATTATIKPRLLYSPLIH", "transcriptional activation domain activity": 74200}, {"sequence": "SRSGGGNGKPAGSGKNGSSQLKEVASRSRRRGDSDDDDRKGGSTRSGGGSRKV", "transcriptional activation domain activity": 34000}, {"sequence": "HGTHCSGTVAGKKYGVAKKAHIKAVKVLRSNGSGSMSDVVKGVEFAAESHAGE", "transcriptional activation domain activity": 38600}, {"sequence": "FYAALYPFKGIFFFIGHPFLYPLARARLIPAFLLSAFVLLNLFFWTYLPQVAF", "transcriptional activation domain activity": 34300}, {"sequence": "MGNGVRCLLFGKDFSFIFLLYRFSMWFLISPFQLPCWVLVILSCSCSSLSIFG", "transcriptional activation domain activity": 65700}, {"sequence": "MDAVSDAARESPDSERGAESEAKRRKVRKGTRSCWECKRRKIRCSFSTASDSV", "transcriptional activation domain activity": 38000}, {"sequence": "EPAEEDSKPEEPAAAAEPEAEVKEEPAEEPAAPAEPKAEAEPEKADETPAAEA", "transcriptional activation domain activity": 24000}, {"sequence": "MVPFSAFSFSLVKKFHWSAAFGGSFFLHLFFTNLNAWVFLFYLLLYVFVYQGL", "transcriptional activation domain activity": 40600}, {"sequence": "VRVLGHDTLYFLTLYLLKAELFFVFFFFLFFRYMLEKRTVIKFTFFFYPCLFE", "transcriptional activation domain activity": 54700}, {"sequence": "MNLILRCIWRVTKTIPRLIQTKSIKPDILLYDIHKFFVTVPPREWKRRATEFP", "transcriptional activation domain activity": 55900}, {"sequence": "MNQTSRFFSPFFSPFFSPFFSPFFLLFFLFSLFLSFPSFLLPCFLLLFLSFYF", "transcriptional activation domain activity": 48800}, {"sequence": "WDGGPTSKLTHVLLTYRQSILVTVYSHLLLLDHSSQVWWRWMNIFFTLVIWSI", "transcriptional activation domain activity": 71000}, {"sequence": "RYLLLSIRDWPCIYIHDLFVFIVSLITDVPDDFLILNFQDLLFFFFVFVFLIF", "transcriptional activation domain activity": 66200}, {"sequence": "FFCCSSLKRDMRFRSYLWAVWVGVVTGVKTSINLVSYRGLPPNNIIIKNLFFA", "transcriptional activation domain activity": 67700}, {"sequence": "EAEGEAGAEEPAAEGEAGAEGEAGGEGELEAEPAAEGEGEAEPEAGAETEAAG", "transcriptional activation domain activity": 13200}, {"sequence": "ENTRHRIFSIFRKSDLGLYALRGSQTLMNYSRVLGLLIRKWVITALRVCMWLG", "transcriptional activation domain activity": 53000}, {"sequence": "HRVSMFLGYNPGNIVSNCRRCLDQWGPDILIHPSRIYLVVLPWLPPFFRKQLR", "transcriptional activation domain activity": 56400}, {"sequence": "MDAAVATEPIPKKRGRPRKVASEETPAVEPKGVRKASTKTAAAVKKEEAPKKV", "transcriptional activation domain activity": 37900}, {"sequence": "MPFGRRSAFGVFFIYHFFFVLHLIFTGFQSIFVYIGLSKLFFFWFGPFFFLFP", "transcriptional activation domain activity": 61800}, {"sequence": "MLLFFSFSLCRFLFLSLLLVFLMDAFSFLCFLLIQPPLPCLRSFFSLFLIFVL", "transcriptional activation domain activity": 38900}, {"sequence": "STKVLLRVFIPVAGYFWISLNYSLVSLAFHVKFNNYFGNIGFFIWWMLNWLTM", "transcriptional activation domain activity": 57300}, {"sequence": "MSLAYLILGFPIPPFLPYFLDVVLSPLSRFSPLPLVFPFVLWCPTSLPLFTSF", "transcriptional activation domain activity": 51400}, {"sequence": "FMSDVGILRWSKLGMPIQSLYQAIWLTFWCSFPFIRDWSWTAQVFFTLHLLSI", "transcriptional activation domain activity": 43100}, {"sequence": "MRGCLVAGITLLTRFVVASCGRRNVGRMRHRPRGQPLPSSLMLLVVICREFRK", "transcriptional activation domain activity": 66500}, {"sequence": "SLLVWEFCLRHPEVRDVCDLGQMIFWNNKGAFYFTAFMFILNNTFIQGLHCLV", "transcriptional activation domain activity": 72600}, {"sequence": "MYHALHKSGLSDTYIIQDVGVPFDAVEAFYKWLHETLHIYPLWLCPIRVRRYT", "transcriptional activation domain activity": 44700}, {"sequence": "PAYEMCTYVWGFRGACLGLLWLIWFVVLYFVLRIRNIHSSFNERIESIIICFL", "transcriptional activation domain activity": 48800}, {"sequence": "SRDRDRKEKTDKTDKDRERDREKERRGEREREREKERERERAERHRERDRERE", "transcriptional activation domain activity": 32800}, {"sequence": "SATARTTTTTRTATSTTTTAKPSTTTRPSTTTTTTAARRPGTTTTTPARTSVT", "transcriptional activation domain activity": 38700}, {"sequence": "TKTVKDTTPATNHMDDDIAMFDSLATTQPIDIAASNQQNGEIAQLWDFNVDQF", "transcriptional activation domain activity": 77600}, {"sequence": "AISKLGQIMLYILKCLGLLKVVRKDDQGRIVECNNLTLINLVLTYTGPLPERN", "transcriptional activation domain activity": 46000}, {"sequence": "PVPAKEPAAVEAPEKEVAEEAKLEDGEIADEAKADDSAEEKPADGAAAAAAAP", "transcriptional activation domain activity": 34700}, {"sequence": "LLLPFVVRRFGCWVCGFYLVLLFFIFPLLLYVVLSSCFSILFTSPFIFYFSSF", "transcriptional activation domain activity": 61200}, {"sequence": "GYRIVKMLGTVYGITVRSRNWAAGLGMVLKSVVGGELRWFTNLLYTARNDAIG", "transcriptional activation domain activity": 48300}, {"sequence": "NRSDEPELDVKELNRHVNADNLSDLQLDDSQKMGYVYKCLGAGIHLLRLSLRL", "transcriptional activation domain activity": 39000}, {"sequence": "ALILIFSQLTFTPYALESRNLHVAVRIFRVLIDLLEQAKSGKIRLTILQFLMR", "transcriptional activation domain activity": 71100}, {"sequence": "GMKRFLPLCFVMYTLWCTTISITWKLICFLSVTADSTPTIQWRLLCMLFWYLF", "transcriptional activation domain activity": 33700}, {"sequence": "GVRKDRQQMYFILATNSMIDLGFVVASFVPLVLLWIGGMGYLRVVWRVTLGLG", "transcriptional activation domain activity": 51400}, {"sequence": "AKADGKRGRTGTGARRGKGKKVTREARGRRKVKRRRGARAGKGSAGRERERGE", "transcriptional activation domain activity": 34800}, {"sequence": "AYHSAKHVIVPNDGKLLAMTDPLISDLDEDGQKGLLIISRGTALLLLGVYIAY", "transcriptional activation domain activity": 47300}, {"sequence": "SFRYHYGELRLSRLNKIHCITRFTWRDFVRGYMTTSTWYQDFFARNFAWLLAV", "transcriptional activation domain activity": 55900}, {"sequence": "VSFFFFLSFFFPPFFFFSLSFLLSFFLSFLLPFPFFLSFFPFFPGCAAPSRSN", "transcriptional activation domain activity": 32200}, {"sequence": "FLLGVFVCLVNLREWWMVDRGPRIMMGEFGKVLSVRMRFALTLHFREQVHVNH", "transcriptional activation domain activity": 48800}, {"sequence": "SVYALVHFGAFYRSSHGPIRMLALHIQAFYNLCSLLFSWFAIANLWLTFSIII", "transcriptional activation domain activity": 67600}, {"sequence": "IWIIQCCVLPLCLHFGSIFPGLQYTLLAFLPYYCCFSHYFPVLIPVLILICFI", "transcriptional activation domain activity": 63700}, {"sequence": "HAARALSLPSISPQFFVLLHKLSFPLLPFWLPMYFLLCITLPSSWLVLLYLFL", "transcriptional activation domain activity": 37800}, {"sequence": "LFFSSFLYFSLSLGAPGNYFFDVTFFFIPYPPLCIASYSLGFFFFFSFFFFFS", "transcriptional activation domain activity": 70900}, {"sequence": "MVFFTSSFLLGFFSFVSFRNHCSFFLMAPFLTGSELFLFFVLLFILFFFFGFG", "transcriptional activation domain activity": 48800}, {"sequence": "LCVFDLLVLTTTAFIQSGVYCAFDWTVSTIEVRGVCVLAVLIATIPIVFIAYA", "transcriptional activation domain activity": 31400}, {"sequence": "GSTSSSNEEKKEQSITSESKAAGGLFGSIKSNEPPTSAFGSLSTTEAKPAASP", "transcriptional activation domain activity": 32800}, {"sequence": "ARAEELGARVSTGRRVVDVRCSSRGEEGSAAVAVCADGSRYAADLVVGADGVH", "transcriptional activation domain activity": 51600}, {"sequence": "MSSWVYKYQLMFVFVSKVESGGRIWNVIINRLLICVLLMQMLMILTMGLQYRF", "transcriptional activation domain activity": 49000}, {"sequence": "DGKWCLRFVPRGQRWLLAITRDFTDTAMMSVAARMVWHPIAYTVCLLPVTIAR", "transcriptional activation domain activity": 55000}, {"sequence": "MLSQSGLPKVLGLASAFVYSWTPMILLACYTVGSLCFYLIIPSLLGEILWYIY", "transcriptional activation domain activity": 60100}]}]}
